# Measurements from patent US9228015B2, “Nogo receptor antagonists and methods of increasing neurite outgrowth” (Biogen Idec MA Inc., priority 2006, dated 2016).
# B1: 7E11: murine monoclonal anti-Nogo receptor-1 antibody, immunogen rat Nogo receptor-1 residues 110-125, IgG1 kappa, ATCC PTA-4587 (antibody, V domains shown)
# VH: VQLQESGAELVMPGASVKMSCKASGYTFTDYWMHWVKQRPGQGLEWIGAIDPSDSYSSYNQNFKGKATLTVDGSSSTAYMQLSSLTSEDSAVYYCARRITEAGAWFAYWGQGTTVT
# VL: MKLPVRLLVLMFWIPASSSDVVMTQTPLSLPVSLGDQASISCRSSQSLVHSNGNTYLHWYLQKPGQSPKLLIYKVSNRFSGVPDRFSGSGSGTDFTLKISRVDAEDLGVYFCSQSTHVPFTFGGGTKLEIKRADAAPTVSISHH
# modifications: 7E11 heavy chain; 7E11 light chain
# notes: murine monoclonal anti-Nogo receptor-1 antibody, immunogen rat Nogo receptor-1 residues 110-125, IgG1 kappa, ATCC PTA-4587
# Biological target: T1, fragments of rat NgR1 (sNgR310) (Rattus norvegicus, UniProt Q99M75, A303T/C287S/E284G)
# T1 construct: intact rat NgR1 (aa 27-aa 310); made in house
# T1 sequence (Q99M75 123-310 E284G/C287S/A303T): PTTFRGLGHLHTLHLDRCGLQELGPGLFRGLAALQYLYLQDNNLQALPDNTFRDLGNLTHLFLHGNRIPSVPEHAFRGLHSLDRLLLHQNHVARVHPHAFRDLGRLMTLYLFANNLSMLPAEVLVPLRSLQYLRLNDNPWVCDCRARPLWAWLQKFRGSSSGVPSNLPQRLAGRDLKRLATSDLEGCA
# Assay: Western blot of acid/CNBr fragments of sNgR310 probed with 7E11
# Assay type: binding
# Protocol: A recombinant fragment of the rat NgR1 that contains all 8 LRR domains and the N- and C-terminal caps (sNgR310) was treated with either acid or cyanogen bromide (CNBr) and separated the fragments by gel electrophoresis. Untreated sNgR310 migrates with an apparent molecular weight of 42 kDa. Acid treatment of sNgR310 produced two major cleavage products of 15 kDa (aa 27-aa 122) and 30 kDa (aa 123-aa 310). CNBr treatment generated three fragments, a 33/35 kDa doublet (aa 27-aa 229), which may represent fragments with heterogeneous glycosylation, a 10 kDa product (aa 241-aa 310), and an 11-amino-acid fragment (as 230-aa 240), which is not retained on the gel. […] Both the 15 kDa acid fragment and the 35 kDa CNBr fragment contained the sequence […] (SEQ ID NO: 1), consistent with 7E11 binding to a single epitope on NgR1.
molecule,measurement,value
B1,binding to the 30 kDa acid fragment (aa 123-aa 310),did not bind
